These are literature values, as cited in PMC3736882.

For this data set, the target named is Factor VIII (Homo sapiens) (UniProt P00451).
Chain of UniProt P00451 (P00451 760-1332): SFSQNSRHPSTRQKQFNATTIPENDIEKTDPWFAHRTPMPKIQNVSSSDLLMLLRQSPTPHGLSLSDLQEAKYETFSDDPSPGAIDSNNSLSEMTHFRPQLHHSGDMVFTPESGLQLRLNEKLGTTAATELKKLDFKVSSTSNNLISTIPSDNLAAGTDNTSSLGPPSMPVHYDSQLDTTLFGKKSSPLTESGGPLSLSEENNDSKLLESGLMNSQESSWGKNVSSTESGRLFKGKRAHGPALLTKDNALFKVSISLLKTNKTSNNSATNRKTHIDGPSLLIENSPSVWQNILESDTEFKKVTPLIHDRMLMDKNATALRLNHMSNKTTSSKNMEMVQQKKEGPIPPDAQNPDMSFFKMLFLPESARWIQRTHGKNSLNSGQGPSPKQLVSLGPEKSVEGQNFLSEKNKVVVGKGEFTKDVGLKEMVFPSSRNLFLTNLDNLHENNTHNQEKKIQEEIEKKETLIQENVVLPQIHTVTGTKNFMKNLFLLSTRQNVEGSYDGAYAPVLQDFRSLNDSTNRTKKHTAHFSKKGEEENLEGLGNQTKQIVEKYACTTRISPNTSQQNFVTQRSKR

In the case of “von Willebrand factor (from UniProt P04275)”, the Kd is less than 1 nM.

One may read the Kd as a measure of binding affinity in units of concentration.
